According to PMC4764562, “The Sec7 N-terminal regulatory domains facilitate membrane-proximal activation of the Arf1 GTPase” (eLife, 2016):

T1: GST-Arf1 (Saccharomyces cerevisiae (strain ATCC …, UniProt P11076))
T1 chain: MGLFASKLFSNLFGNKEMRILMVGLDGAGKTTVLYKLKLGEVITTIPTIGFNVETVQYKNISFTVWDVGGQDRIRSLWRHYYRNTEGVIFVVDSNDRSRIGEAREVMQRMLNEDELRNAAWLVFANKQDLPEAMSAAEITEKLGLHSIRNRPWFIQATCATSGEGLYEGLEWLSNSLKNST


Legend:
[1] = molecular target: full-length T. terrestris Sec7 (T. terrestris); experiment: SEC-MALS; 5 mg/ml, Wyatt WTC-050S5 gel filtration column with DAWN HELEOS-II and Optilab T-rEX detectors, room temperature; measured mass compared with that predicted from the sequence
[2] = molecular target: construct corresponding to a predicted coiled-coil from the HDS4 domain of Sec7; experiment: as above
[3] = molecular target: the molecule itself; experiment: as above
[4] = molecular target: T1, GST-Arf1; experiment: GST pulldown (also liposome pelleting); Arf1 loaded with GMPPNP or GDP; no stable nucleotide-dependent interaction seen (Arf1 is nevertheless a GEF substrate of Sec7ΔC)

Row | Molecule | stoichiometry N [3] | further results
1 | full-length T. terrestris Sec7 (natural protein) | – | stoichiometry N [1]: 2
2 | construct corresponding to a predicted coiled-coil from the HDS4 domain of Sec7 (domain or fragment) | – | stoichiometry N [2]: 2
3 | S. cerevisiae Gea2 full-length (natural protein, UniProt P39993 1-1459, looked up, Gea2, early-Golgi Arf-GEF of S. cerevisiae, full length) MSDREFVTVDPVTIIIKECINLSTAMRKYSKFTSQSGVAALLGGGSEIFSNQDDYLAHTFNNLNTNKHNDPFLSGFIQLRLMLNKLKNLDNIDSLTILQPFLLIVSTSSISGYITSLALDSLQKFFTLNIINESSQNYIGAHRATVNALTHCRFEGSQQLSDDSVLLKVVFLLRSIVDSPYGDLLSNSIIYDVLQTILSLACNNRRSEVLRNAAQSTMIAVTVKIFSKLKTIEPVNVNQIYINDESYTNDVLKADTIGTNVESKEEGSQEDPIGMKVNNEEAISEDDGIEEEHIHSEKSTNGAEQLDIVQKTTRSNSRIQAYADDNYGLPVVRQYLNLLLSLIAPENELKHSYSTRIFGLELIQTALEISGDRLQLYPRLFTLISDPIFKSILFIIQNTTKLSLLQATLQLFTTLVVILGNNLQLQIELTLTRIFSILLDDGTANNSSSENKNKPSIIKELLIEQISILWTRSPSFFTSTFINFDCNLDRADVSINFLKALTKLALPESALTTTESVPPICLEGLVSLVDDMFDHMKDIDREEFGRQKNEMEILKKRDRKTEFIECTNAFNEKPKKGIPMLIEKGFIASDSDKDIAEFLFNNNNRMNKKTIGLLLCHPDKVSLLNEYIRLFDFSGLRVDEAIRILLTKFRLPGESQQIERIIEAFSSAYCENQDYDPSKISDNAEDDISTVQPDADSVFILSYSIIMLNTDLHNPQVKEHMSFEDYSGNLKGCCNHKDFPFWYLDRIYCSIRDKEIVMPEEHHGNEKWFEDAWNNLISSTTVITEIKKDTQSVMDKLTPLELLNFDRAIFKQVGPSIVSTLFNIYVVASDDHISTRMITSLDKCSYISAFFDFKDLFNDILNSIAKGTTLINSSHDDELSTLAFEYGPMPLVQIKFEDTNTEIPVSTDAVRFGRSFKGQLNTVVFFRIIRRNKDPKIFSKELWLNIVNIILTLYEDLILSPDIFPDLQKRLKLSNLPKPSPEISINKSKESKGLLSTFASYLKGDEEPTEEEIKSSKKAMECIKSSNIAASVFGNESNITADLIKTLLDSAKTEKNADNSRYFEAELLFIIELTIALFLFCKEEKELGKFILQKVFQLSHTKGLTKRTVRRMLTYKILLISLCADQTEYLSKLINDELLKKGDIFTQKFFATNQGKEFLKRLFSLTESEFYRGFLLGNENFWKFLRKVTAMKEQSESIFEYLNESIKTDSNILTNENFMWVLGLLDEISSMGAVGNHWEIEYKKLTESGHKIDKENPYKKSIELSLKSIQLTSHLLEDNNDLRKNEIFAIIQALAHQCINPCKQISEFAVVTLEQTLINKIEIPTNEMESVEELIEGGLLPLLNSSETQEDQKILISSILTIISNVYLHYLKLGKTSNETFLKILSIFNKFVEDSDIEKKLQQLILDKKSIEKGNGSSSHGSAHEQTPESNDVEIEATAPIDDNTDDDNKPKLSDVEKD | 2 | –
4 | S. cerevisiae Sec7ΔC (residues 203-1017) (domain or fragment, UniProt P11075 203-1017, looked up, Sec7 of S. cerevisiae, residues 203-1017 (DCB/HUS and GEF domains); also called Sec7(203-1017); construct lacking the HDS1-4 domains with the GEF domain; source: E. coli, purified (Ni-NTA, MonoQ, Superdex 200)) PRSTHTRNISLSSNGSNTNSTIILVKTTLETILNDKDIKKNSNAQKAIERTLQKFKEFDPQTTNNPHYVDSILVFEALRASCRTKSSKVQSLALDCLSKLFSFRSLDETLLVNPPDSLASNDQRQDAADGITPPPKQKIIDAAIDTISDCFQGEGTDDRVELQIVRALSSCILEEDSSSLCHGASLLKAIRTIYNVFVFSLNPSNQGIAQATLTQIISSVYDKIDLKQSTSSAVSLSTKNHQQQSAIELSEASENAETPAPLTLENMDKLNDDEERLMDAQQPDSIAITNQDLAVKDAFLVFRVMAKICAKPLETELDMRSHAVRSKLLSLHIIYSIIKDHIDVFLSHNIFLPGKERVCFIDSIRQYLRLVLSRNAASPLAPVFEVTLEIMWLLIANLRADFVKEIPVFLTEIYFPISELTTSTSQQKRYFLSVIQRICNDPRTLVEFYLNYDCNPGMPNVMEITVDYLTRLALTRVEITQTQRSYYDEQISKSLSTYNFSQLPLLTSSNLSSSPDVGQVNLLFPLDFALKMVSLNCIVSVLRSLSSWAHKALNPNTHTANKVLLNTTSSARQESRSSLSNDVRSSIMTSNDDFKPTYEDEESRSLSSQNIDADDPTQFENLKLRKTALSECIAIFNNKPKKAIPVLIKKGFLKDDSPISIAKWLLETEGLDMAAVGDYLGEGDDKNIAIMHAFVDEFDFTGMSIVDALRSFLQSFRLPGEGQKIDRFMLKFAERFVDQNPGVFSKADTAYVLSYSLIMLNTDLHSSQIKNKMSLQEFLENNEGIDNGRDLPRDFLEGLFNEIANNEIKLISEQH | 2 | binding result [4]: no binding
5 | S. cerevisiae Sec7f (residues 203-2009) (domain or fragment, UniProt P11075 203-2009, looked up, Sec7 (Arf-GEF) of S. cerevisiae, residues 203-2009; source: E. coli, purified (Ni-NTA, MonoQ, Superdex 200)) PRSTHTRNISLSSNGSNTNSTIILVKTTLETILNDKDIKKNSNAQKAIERTLQKFKEFDPQTTNNPHYVDSILVFEALRASCRTKSSKVQSLALDCLSKLFSFRSLDETLLVNPPDSLASNDQRQDAADGITPPPKQKIIDAAIDTISDCFQGEGTDDRVELQIVRALSSCILEEDSSSLCHGASLLKAIRTIYNVFVFSLNPSNQGIAQATLTQIISSVYDKIDLKQSTSSAVSLSTKNHQQQSAIELSEASENAETPAPLTLENMDKLNDDEERLMDAQQPDSIAITNQDLAVKDAFLVFRVMAKICAKPLETELDMRSHAVRSKLLSLHIIYSIIKDHIDVFLSHNIFLPGKERVCFIDSIRQYLRLVLSRNAASPLAPVFEVTLEIMWLLIANLRADFVKEIPVFLTEIYFPISELTTSTSQQKRYFLSVIQRICNDPRTLVEFYLNYDCNPGMPNVMEITVDYLTRLALTRVEITQTQRSYYDEQISKSLSTYNFSQLPLLTSSNLSSSPDVGQVNLLFPLDFALKMVSLNCIVSVLRSLSSWAHKALNPNTHTANKVLLNTTSSARQESRSSLSNDVRSSIMTSNDDFKPTYEDEESRSLSSQNIDADDPTQFENLKLRKTALSECIAIFNNKPKKAIPVLIKKGFLKDDSPISIAKWLLETEGLDMAAVGDYLGEGDDKNIAIMHAFVDEFDFTGMSIVDALRSFLQSFRLPGEGQKIDRFMLKFAERFVDQNPGVFSKADTAYVLSYSLIMLNTDLHSSQIKNKMSLQEFLENNEGIDNGRDLPRDFLEGLFNEIANNEIKLISEQHQAMLSGDTNLVQQQQSAFNFFNSRDLTREAYNQVSKEISSKTELVFKNLNKNKGGPDVYYAASHVEHVKSIFETLWMSFLAALTPPFKDYDDIDTTNKCLEGLKISIKIASTFRINDARTSFVGALVQFCNLQNLEEIKVKNVNAMVILLEVALSEGNYLEGSWKDILLVVSQMERLQLISKGIDRDTVPDVAQARVANPRVSYESSRSNNTSFFDVWGKKATPTELAQEKHHNQTLSPEISKFISSSELVVLMDNIFTKSSELSGNAIVDFIKALTAVSLEEIESSENASTPRMFSLQKMVDVCYYNMDRIKLEWTPLWAVMGKAFNKIATNSNLAVVFFAIDSLRQLSMRFLDIEELSGFEFQHDFLKPFEYTVQNSGNTEVQEMIIECFRNFILTKSESIKSGWKPILESLQYTARSSTESIVLKTQLLVSNDIVTNHFENVFSQEDAFSELVGVFREITKNKRFQKLSLHALESLRKMTQNVADICFYNENKTEEERKHNDALLRGKDIFQDVWFPMLFCFNDTIMTAEDLEVRSRALNYMFDALVAYGGKFNDDFWEKICKKLLFPIFGVLSKHWEVNQFNSHDDLSVWLSTTLIQALRNLIALFTHYFESLNRMLDGFLGLLVSCICQENDTIARIGRSCLQQLILQNVSKFNEYHWNQIGDVFDKLFDLTTANELFDYDPLQQGRKSSVSHHQTTNDTSQHSDDDSNDRRENDSNISETVERAHQEESSEDVGGDMVETLNGQTKLNNGNSVPTVKDELNPKPASLSIPKKTKHMKRNESNEDIRRRINIKNSIVVKCVLQLLMIELLNELFENEDFAHCIPYKEAIRITRLLEKSYEFSRDFNEDYGLRTRLVEARVVDKIPNLLKQETSAAAVLLDIMFQLYLNDDEKKADLITRLITICIQVVEGYVSLDDRTMERSINAWRSVIVEILQGYYEFDDEDFRLYCPAMYALVIQILDKSVPTELRHAIKQFLSRVGELYLSTD | 2 | –
6 | S. cerevisiae Sec7 DCB/HUS domain construct (domain or fragment) PRSTHTRNISLSSNGSNTNSTIILVKTTLETILNDKDIKKNSNAQKAIERTLQKFKEFDPQTTNNPHYVDSILVFEALRASCRTKSSKVQSLALDCLSKLFSFRSLDETLLVNPPDSLASNDQRQDAADGITPPPKQKIIDAAIDTISDCFQGEGTDDRVELQIVRALSSCILEEDSSSLCHGASLLKAIRTIYNVFVFSLNPSNQGIAQATLTQIISSVYDKIDLKQSTSSAVSLSTKNHQQQSAIELSEASENAETPAPLTLENMDKLNDDEERLMDAQQPDSIAITNQDLAVKDAFLVFRVMAKICAKPLETELDMRSHAVRSKLLSLHIIYSIIKDHIDVFLSHNIFLPGKERVCFIDSIRQYLRLVLSRNAASPLAPVFEVTLEIMWLLIANLRADFVKEIPVFLTEIYFPISELTTSTSQQKRYFLSVIQRICNDPRTLVEFYLNYDCNPGMPNVMEITVDYLTRLALTRVEITQTQRSYYDEQISKSLSTYNFSQLPLLTSSNLSSSPDVGQVNLLFPLDFALKMVSLNCIVSVLRSLSSWAHKALNPNTHTANKVLLNTTSSARQESRSSLSNDVRSSIMTSNDDFKPTYEDEESRSLSSQNIDADDPTQFEN | 2 | –
